What was measured:
[1] = target: T1, human CD38 (human, UniProt P28907 43-300, limits assumed); assay: SPR
T1 construct: also called hCD38; huCD38

[2] = target: T2, cynomolgus monkey CD38 (cynomolgus monkey, UniProt Q5VAN0 44-301, limits assumed); assay: SPR
T2 construct: also called Cyno CD38; cynoCD38

[3] = target: T1, human CD38; assay: ELISA
[4] = target: T2, cynomolgus monkey CD38; assay: ELISA
[5] = target: T1, human CD38; assay: FACS
[6] = target: T2, cynomolgus monkey CD38; assay: FACS

| Binder | Kd [1] [nM] | Kd [2] [nM] | EC50 [3] [nM] | EC50 [4] [nM] | EC50 [5] [nM] | EC50 [6] [nM] |
| --- | --- | --- | --- | --- | --- | --- |
| AntiCD38_hhy_992 (antibody, V domains shown) VH: QVQLVQSGAEVKKPGASVKVSCKVSGYTLTEFSIHWVRQAPGQGLEWMGGFDPEDGETIYAQKFQGRVIMTEDTSTDTAYMEMNSLRSEDTAIYYCTTGRFFDWFWGQGTLVTVSS VL: EIILTQSPAILSLSPGERATLSCRASQSVISRFLSWYQVKPGLAPRLLIYGASTRATGIPVRFSGSGSGTDFSLTISSLQPEDCAVYYCQQDSNLPITFGQGTRLEIK | 0.365 | 6.12 | 0.09 | 0.08 | 100 | 288 |
| AntiCD38_hyb_5739 (antibody, V domains shown) VH: QVQLQQSGPELVRPGTSVKVSCKASGYAFTTYLVEWIKQRPGQGLEWIGVINPGSGSTNYNEKFKGKATLTVDRSSTTAYMHLSGLTSDDSAVYFCARYAYGYWGQGTTLTVSS VL: DIVMTQSQKFMSASVGDRVSITCKASQNVGTAVAWYQQQPGHSPKQLIYSASNRYTGVPDRFTGSGAGTDFTLTISNIQSEDLADYFCQQYSTYPFTFGSGTKLEIK |  |  | 0.12 | 0.09 | 0.3 | 0.5 |

More lines, now with the values ahead:

| Kd [1] [nM] | Kd [2] [nM] | EC50 [3] [nM] | EC50 [4] [nM] | EC50 [5] [nM] | EC50 [6] [nM] | Binder |
| --- | --- | --- | --- | --- | --- | --- |
|  |  | 0.11 | 0.13 | 0.4 | 0.7 | AntiCD38_hyb_6284 (antibody, V domains shown) VH: QVQLLQSGAELVRPGVSVKISCTGSGYSFTNYAVHWVKQSHVKSLEWIGVISPYYGDTTYNQKFTGKATMTVDKSSSTAYMELARLTSEDSAIYFCARRFEGFYYSMDYWGQGTSVTVSS VL: DVVMIQTPLSLPVSLGDQASISCRPSQSLVHSNGNTYLNWYLQRPGQSPKLLIYKVSKRFSGVPDRFSGSGSGTDFTLKISRVEAEDLGVYLCSQSTHVPLTFGSGTQLEIK |
| 40 | 26 | 1.4 | 0.86 | 38 | 15 | AntiCD38_hhy_1195 (antibody, V domains shown) VH: QVQLVESGGGVVQPGRSLRLSCAASGFTFSSYGMYWVRQAPGKGLEWVAVIWYDGSNKYYADSVKGRFTISRDNSKNTLYLQMNSLRAEDTAVYHCARDPGLRYFDGGMDVWGQGTTVTVSS VL: DIQLTQSPSFLSASVGDRVTITCRASQGISSYLAWYQQKPGKAPKLLIFAASTLHSGVPSRFSGSGSGTEFTLTISSLQPEDFATYYCQQLNSFPYTFGQGTKLEIK |

Source: patent US20200399369A1 (Sanofi, published 2020)
